{
  "source": "IntAct's records for PubMed 17113272",
  "parents": {"B1": {"name": "Armadillo segment polarity protein (Drosophila melanogaster (Fruit fly)), P18824 (parent)", "chain": "MSYMPAQNRTMSHNNQYNPPDLPPMVSAKEQTLMWQQNSYLGDSGIHSGAVTQVPSLSGKEDEEMEGDPLMFDLDTGFPQNFTQDQVDDMNQQLSQTRSQRVRAAMFPETLEEGIEIPSTQFDPQQPTAVQRLSEPSQMLKHAVVNLINYQDDAELATRAIPELIKLLNDEDQVVVSQAAMMVHQLSKKEASRHAIMNSPQMVAALVRAISNSNDLESTKAAVGTLHNLSHHRQGLLAIFKSGGIPALVKLLSSPVESVLFYAITTLHNLLLHQDGSKMAVRLAGGLQKMVTLLQRNNVKFLAIVTDCLQILAYGNQESKLIILASGGPNELVRIMRSYDYEKLLWTTSRVLKVLSVCSSNKPAIVDAGGMQALAMHLGNMSPRLVQNCLWTLRNLSDAATKVEGLEALLQSLVQVLGSTDVNVVTCAAGILSNLTCNNQRNKATVCQVGGVDALVRTIINAGDREEITEPAVCALRHLTSRHVDSELAQNAVRLNYGLSVIVKLLHPPSRWPLIKAVIGLIRNLALCPANHAPLREHGAIHHLVRLLMRAFQDTERQRSSIATTGSQQPSAYADGVRMEEIVEGTVGALHILARESHNRALIRQQSVIPIFVRLLFNEIENIQRVAAGVLCELAADKEGAEIIEQEGATGPLTDLLHSRNEGVATYAAAVLFRMSEDKPQDYKKRLSIELTNSLLREDNNIWANADLGMGPDLQDMLGPEEAYEGLYGQGPPSVHSSHGGRAFHQQGYDTLPIDSMQGLEISSPVGGGGAGGAPGNGGAVGGASGGGGNIGAIPPSGAPTSPYSMDMDVGEIDAGALNFDLDAMPTPPNDNNNLAAWYDTDC", "partner": "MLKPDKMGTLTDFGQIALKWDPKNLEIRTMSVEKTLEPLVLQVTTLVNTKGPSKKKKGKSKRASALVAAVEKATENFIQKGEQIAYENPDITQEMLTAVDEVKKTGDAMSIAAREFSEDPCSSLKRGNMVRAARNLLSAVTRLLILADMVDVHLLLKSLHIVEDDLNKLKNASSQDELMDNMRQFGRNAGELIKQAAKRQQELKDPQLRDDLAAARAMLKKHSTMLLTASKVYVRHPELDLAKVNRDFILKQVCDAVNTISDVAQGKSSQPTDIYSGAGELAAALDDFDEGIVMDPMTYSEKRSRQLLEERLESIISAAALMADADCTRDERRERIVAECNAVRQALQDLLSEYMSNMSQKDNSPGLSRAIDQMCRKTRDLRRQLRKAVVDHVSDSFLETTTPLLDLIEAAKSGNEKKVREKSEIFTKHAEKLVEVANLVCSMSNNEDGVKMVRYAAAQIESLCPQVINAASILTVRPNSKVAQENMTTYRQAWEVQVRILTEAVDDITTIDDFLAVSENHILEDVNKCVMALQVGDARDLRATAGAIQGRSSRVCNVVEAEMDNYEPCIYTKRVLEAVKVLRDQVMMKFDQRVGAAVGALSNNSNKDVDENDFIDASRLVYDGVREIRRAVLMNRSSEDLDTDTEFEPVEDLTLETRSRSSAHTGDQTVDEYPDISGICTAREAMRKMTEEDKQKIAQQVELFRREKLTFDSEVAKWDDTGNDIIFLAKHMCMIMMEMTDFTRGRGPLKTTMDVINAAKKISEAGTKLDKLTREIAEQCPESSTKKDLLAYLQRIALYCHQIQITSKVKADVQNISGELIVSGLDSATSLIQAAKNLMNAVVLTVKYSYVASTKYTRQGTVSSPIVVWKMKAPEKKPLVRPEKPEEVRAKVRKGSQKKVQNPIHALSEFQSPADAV"}, "B2": {"name": "Catenin beta-1 (Mus musculus), Q02248 (parent)", "chain": "MATQADLMELDMAMEPDRKAAVSHWQQQSYLDSGIHSGATTTAPSLSGKGNPEEEDVDTSQVLYEWEQGFSQSFTQEQVADIDGQYAMTRAQRVRAAMFPETLDEGMQIPSTQFDAAHPTNVQRLAEPSQMLKHAVVNLINYQDDAELATRAIPELTKLLNDEDQVVVNKAAVMVHQLSKKEASRHAIMRSPQMVSAIVRTMQNTNDVETARCTAGTLHNLSHHREGLLAIFKSGGIPALVKMLGSPVDSVLFYAITTLHNLLLHQEGAKMAVRLAGGLQKMVALLNKTNVKFLAITTDCLQILAYGNQESKLIILASGGPQALVNIMRTYTYEKLLWTTSRVLKVLSVCSSNKPAIVEAGGMQALGLHLTDPSQRLVQNCLWTLRNLSDAATKQEGMEGLLGTLVQLLGSDDINVVTCAAGILSNLTCNNYKNKMMVCQVGGIEALVRTVLRAGDREDITEPAICALRHLTSRHQEAEMAQNAVRLHYGLPVVVKLLHPPSHWPLIKATVGLIRNLALCPANHAPLREQGAIPRLVQLLVRAHQDTQRRTSMGGTQQQFVEGVRMEEIVEGCTGALHILARDVHNRIVIRGLNTIPLFVQLLYSPIENIQRVAAGVLCELAQDKEAAEAIEAEGATAPLTELLHSRNEGVATYAAAVLFRMSEDKPQDYKKRLSVELTSSLFRTEPMAWNETADLGLDIGAQGEALGYRQDDPSYRSFHSGGYGQDALGMDPMMEHEMGGHHPGADYPVDGLPDLGHAQDLMDGLPPGDSNQLAWFDTDL", "partner": "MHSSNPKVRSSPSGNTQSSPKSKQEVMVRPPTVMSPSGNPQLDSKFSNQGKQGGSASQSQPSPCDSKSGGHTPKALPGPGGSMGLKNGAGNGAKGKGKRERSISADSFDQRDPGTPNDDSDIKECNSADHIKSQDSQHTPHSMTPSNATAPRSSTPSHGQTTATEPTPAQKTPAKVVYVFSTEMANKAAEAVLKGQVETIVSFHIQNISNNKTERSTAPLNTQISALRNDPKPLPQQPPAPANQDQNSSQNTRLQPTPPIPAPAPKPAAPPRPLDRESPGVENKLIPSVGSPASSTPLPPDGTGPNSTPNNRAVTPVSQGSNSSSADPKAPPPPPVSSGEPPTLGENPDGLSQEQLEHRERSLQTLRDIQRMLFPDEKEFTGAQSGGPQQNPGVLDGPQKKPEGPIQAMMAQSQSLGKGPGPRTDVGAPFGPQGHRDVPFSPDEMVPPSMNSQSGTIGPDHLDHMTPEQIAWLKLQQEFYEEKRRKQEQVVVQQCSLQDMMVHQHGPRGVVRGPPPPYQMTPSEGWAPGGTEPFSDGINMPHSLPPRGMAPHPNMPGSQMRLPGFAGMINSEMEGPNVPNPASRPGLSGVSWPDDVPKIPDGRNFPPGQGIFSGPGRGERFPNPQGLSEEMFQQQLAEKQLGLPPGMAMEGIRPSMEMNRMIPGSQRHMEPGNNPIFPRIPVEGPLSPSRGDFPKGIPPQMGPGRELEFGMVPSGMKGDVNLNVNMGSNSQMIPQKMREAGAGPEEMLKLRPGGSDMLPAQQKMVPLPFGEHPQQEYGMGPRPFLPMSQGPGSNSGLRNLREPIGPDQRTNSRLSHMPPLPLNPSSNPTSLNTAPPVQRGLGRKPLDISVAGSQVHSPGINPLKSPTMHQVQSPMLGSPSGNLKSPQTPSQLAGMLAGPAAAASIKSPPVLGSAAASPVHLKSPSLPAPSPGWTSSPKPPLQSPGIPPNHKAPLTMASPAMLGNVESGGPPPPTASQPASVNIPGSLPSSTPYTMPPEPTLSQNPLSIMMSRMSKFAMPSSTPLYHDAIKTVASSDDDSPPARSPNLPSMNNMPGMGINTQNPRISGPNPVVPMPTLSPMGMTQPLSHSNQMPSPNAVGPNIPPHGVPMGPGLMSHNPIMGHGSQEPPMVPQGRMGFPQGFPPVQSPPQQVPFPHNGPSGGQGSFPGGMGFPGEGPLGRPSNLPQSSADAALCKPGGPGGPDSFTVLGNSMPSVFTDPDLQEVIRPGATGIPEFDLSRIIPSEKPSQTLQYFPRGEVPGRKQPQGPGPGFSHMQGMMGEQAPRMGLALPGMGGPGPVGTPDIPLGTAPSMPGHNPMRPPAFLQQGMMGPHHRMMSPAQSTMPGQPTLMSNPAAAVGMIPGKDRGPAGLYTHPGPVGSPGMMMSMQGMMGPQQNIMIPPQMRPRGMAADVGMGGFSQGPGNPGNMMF"}, "B3": {"name": "Catenin beta-1 (Mus musculus), Q02248 (parent)", "chain": "B2 chain", "partner": "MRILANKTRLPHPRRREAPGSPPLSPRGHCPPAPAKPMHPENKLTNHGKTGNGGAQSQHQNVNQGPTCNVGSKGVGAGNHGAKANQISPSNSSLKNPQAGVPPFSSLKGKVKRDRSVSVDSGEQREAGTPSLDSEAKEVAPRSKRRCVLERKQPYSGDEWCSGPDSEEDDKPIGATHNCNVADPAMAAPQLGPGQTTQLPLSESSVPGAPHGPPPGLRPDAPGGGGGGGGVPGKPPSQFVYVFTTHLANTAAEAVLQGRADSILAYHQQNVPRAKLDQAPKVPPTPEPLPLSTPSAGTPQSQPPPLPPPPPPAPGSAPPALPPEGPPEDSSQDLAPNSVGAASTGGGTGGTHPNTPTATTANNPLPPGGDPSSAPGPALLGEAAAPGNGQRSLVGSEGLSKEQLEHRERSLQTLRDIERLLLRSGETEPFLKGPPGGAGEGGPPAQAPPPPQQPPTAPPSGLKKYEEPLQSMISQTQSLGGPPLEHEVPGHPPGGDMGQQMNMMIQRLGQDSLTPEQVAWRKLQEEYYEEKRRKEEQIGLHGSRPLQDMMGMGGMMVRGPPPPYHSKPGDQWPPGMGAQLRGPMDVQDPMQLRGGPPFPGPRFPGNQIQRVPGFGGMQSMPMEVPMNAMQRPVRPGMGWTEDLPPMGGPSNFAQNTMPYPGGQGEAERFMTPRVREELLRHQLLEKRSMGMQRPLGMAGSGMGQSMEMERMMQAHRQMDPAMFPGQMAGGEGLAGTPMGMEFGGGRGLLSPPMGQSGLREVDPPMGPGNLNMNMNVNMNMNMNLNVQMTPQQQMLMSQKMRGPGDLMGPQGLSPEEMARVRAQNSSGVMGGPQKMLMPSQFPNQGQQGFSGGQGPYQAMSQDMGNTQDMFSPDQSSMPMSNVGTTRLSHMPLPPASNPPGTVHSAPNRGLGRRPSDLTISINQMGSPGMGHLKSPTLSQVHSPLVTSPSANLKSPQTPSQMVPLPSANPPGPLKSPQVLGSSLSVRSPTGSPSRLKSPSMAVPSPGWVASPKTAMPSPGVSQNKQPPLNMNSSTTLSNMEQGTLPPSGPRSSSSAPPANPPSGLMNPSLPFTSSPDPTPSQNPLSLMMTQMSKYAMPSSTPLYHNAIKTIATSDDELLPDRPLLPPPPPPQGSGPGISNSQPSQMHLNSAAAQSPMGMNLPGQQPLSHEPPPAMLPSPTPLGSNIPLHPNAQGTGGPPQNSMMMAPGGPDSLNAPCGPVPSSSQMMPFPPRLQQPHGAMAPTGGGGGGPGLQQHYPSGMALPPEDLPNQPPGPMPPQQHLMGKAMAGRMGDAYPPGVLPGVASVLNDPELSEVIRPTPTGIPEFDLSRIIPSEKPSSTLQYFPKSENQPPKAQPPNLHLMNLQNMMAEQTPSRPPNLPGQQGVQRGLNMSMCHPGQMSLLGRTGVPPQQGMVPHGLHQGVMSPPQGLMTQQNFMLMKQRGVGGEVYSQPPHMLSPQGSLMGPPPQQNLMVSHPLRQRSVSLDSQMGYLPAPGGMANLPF"}},
  "data": [
    {"variants_of": "B1", "settings": "with ctna_drome alpha-Cat", "values": [
      {"variant": "Y150A", "effect of a mutation on the interaction": "disrupting interaction"}
    ]},
    {"variants_of": "B2", "settings": "with bcl9_human BCL9, O00512", "values": [
      {"variant": "D164A", "effect of a mutation on the interaction": "disrupting interaction"}
    ]},
    {"variants_of": "B3", "settings": "with bcl9l_human BCL9L", "values": [
      {"variant": "D164A", "effect of a mutation on the interaction": "disrupting interaction"}
    ]}
  ]
}
